Data from patent US20130224187A1 (Alexion, published 2013).
Positions count from the first letter of the chain named.

Tests used:
human C5a [1] = molecular target: T1, human C5a (human, UniProt P01031 678-751); assay: SPR (Biacore); summary sentence of Table 4
T1 construct: also called hC5a; free human C5a
T1 sequence: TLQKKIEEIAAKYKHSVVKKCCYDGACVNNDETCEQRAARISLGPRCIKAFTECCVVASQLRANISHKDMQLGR
Experimental: (§1) See, e.g., Karlsson and Larsson (2004) Methods Mol Biol 248:389-415. […] The surface was regenerated with 20 mM HCl, 0.02% P20 after each cycle to remove bound antibody and antigen. The data was evaluated using Biacore BlAevaluation software using a 1:1 Langmuir Model Fit (Rmax:Global Fit; R1:Local Fit). Kinetics information such as (kₐ: Association Rate constant), (kd:Dissociation Rate constant) and KD (Equilibrium Dissociation constant) was obtained from the fit. These experiments were for screening purposes with a minimal number of analyte concentrations (3 to 4) with 1 duplicate.

human C5a [2] = molecular target: T1, human C5a; assay: SPR (Biacore); antibody captured by anti-human Fc on CM5 chip, human C5a 0.6-5.9 nM as analyte; 1:1 Langmuir fit
Experimental: as §1

human C5a [3] = molecular target: T1, human C5a; assay: ELISA

B1: BNJ367 (antibody, human IgG2, kappa)
heavy: QVQLVQSGAEVKKPGASVKVSCKASGYTFTDYSMDWVRQAPGQGLEWMGAINPNSGGTNYNQKFKDRVTMTRDTSTSTVYMELSSLRSEDTAVYYCARSGSYDGYYAMDYWGQGTTVTVSSASTKGPSVFPLAPCSRSTSESTAALGCLVKDYFPEPVTVSWNSGALTSGVHTFPAVLQSSGLYSLSSVVTVPSSNFGTQTYTCNVDHKPSNTKVDKTVERKCCVECPPCPAPPVAGPSVFLFPPKPKDTLMISRTPEVTCVVVDVSQEDPEVQFNWYVDGVEVHNAKTKPREEQFNSTYRVVSVLTVLHQDWLNGKEYKCKVSNKGLPSSIEKTISKAKGQPREPQVYTLPPSQEEMTKNQVSLTCLVKGFYPSDIAVEWESNGQPENNYKTTPPVLDSDGSFFLYSRLTVDKSRWQEGNVFSCSVMHEALHNHYTQKSLSLSLGK
light: DIVMTQSPDSLAVSLGERATINCRASESVDSYGNSFMHWYQQKPGQPPKLLIYRASNLESGVPDRFSGSGSGTDFTLTISSLQAEDVAVYYCQQSNEDPYTFGGGTKVEIKRTVAAPSVFIFPPSDEQLKSGTASVVCLLNNFYPREAKVQWKVDNALQSGNSQESVTEQDSKDSTYSLSSTLTLSKADYEKHKVYACEVTHQGLSSPVTKSFNRGEC
notes: Humanized full length IgG
With B1 as the binder, how does the Kd (human C5a [1]) read?
The Kd was less than 1 nM.

What about the Kd (human C5a [2]) of the same binder?
The Kd was 0.198 nM.

And the koff (human C5a [2])?
The koff was 0.000778 s⁻¹.

And the kon (human C5a [2])?
The kon was 3.94e+06 M⁻¹ s⁻¹.

B2: BNJ369 (antibody, human IgG2, kappa)
heavy: QVQLVQSGAEVKKPGASVKVSCKASGYTFTDYSMDWVRQAPGQGLEWMGAIHLNTGYTNYNQKFKGRVTMTRDTSTSTVYMELSSLRSEDTAVYYCARGFYDGYSPMDYWGQGTTVTVSSASTKGPSVFPLAPCSRSTSESTAALGCLVKDYFPEPVTVSWNSGALTSGVHTFPAVLQSSGLYSLSSVVTVPSSNFGTQTYTCNVDHKPSNTKVDKTVERKCCVECPPCPAPPVAGPSVFLFPPKPKDTLMISRTPEVTCVVVDVSQEDPEVQFNWYVDGVEVHNAKTKPREEQFNSTYRVVSVLTVLHQDWLNGKEYKCKVSNKGLPSSIEKTISKAKGQPREPQVYTLPPSQEEMTKNQVSLTCLVKGFYPSDIAVEWESNGQPENNYKTTPPVLDSDGSFFLYSRLTVDKSRWQEGNVFSCSVMHEALHNHYTQKSLSLSLGK
light: B1 light
notes: Humanized full length IgG
B2 was tested. Which Kd (human C5a [2]) did it give?
The Kd was 0.0531 nM.

And the koff (human C5a [2])?
The koff was 0.000223 s⁻¹.

And the kon (human C5a [2])?
Its kon is 4.19e+06 M⁻¹ s⁻¹.

B3: BNJ381 (antibody, human IgG2, kappa, V domains shown)
VH: QVQLVQSGAEVKKPGASVKVSCKASGYTFTDYSMDWVRQAPGQGLEWMGAIHLNTGYTNYNQKFKGRVTMTRDTSTSTVYMELSSLRSEDTAVYYCARGFYDGYSPMDYWGQGTTVTVSS
VL: DIVMTQSPDSLAVSLGERATINCRASESVDSYGNSFMHWYQQKPGQPPKLLIYWASTRESGVPDRFSGSGSGTDFTLTISSLQAEDVAVYYCQQSNEDPYTFGGGTKVEIKR
notes: Humanized full length IgG; Light chain CDR2 is humanized
Which results are given for B3?
Kd (human C5a [2]): 0.0815 nM; koff (human C5a [2]): 0.000209 s⁻¹; kon (human C5a [2]): 2.57e+06 M⁻¹ s⁻¹

B4: BNJ364 (antibody, human IgG2, kappa)
heavy: QVQLVQSGAEVKKPGASVKVSCKASGYTFTDYSMDWVRQAPGQGLEWMGAINPNSGGTNYNQKFKDRVTMTRDTSTSTVYMELSSLRSEDTAVYYCARSGSYDGYYAMDYWGQGTTVTVSSASTKGPSVFPLAPCSRSTSESTAALGCLVKDYFPEPVTVSWNSGALTSGVHTFPAVLQSSGLYSLSSVVTVPSSNFGTQTYTCNVDHKPSNTKVDKTVERKCCVECPPCPAPPVAGPSVFLFPPKPKDTLMISRTPEVTCVVVDVSHEDPEVQFNWYVDGVEVHNAKTKPREEQFNSTFRVVSVLTVVHQDWLNGKEYKCKVSNKGLPAPIEKTISKTKGQPREPQVYTLPPSREEMTKNQVSLTCLVKGFYPSDISVEWESNGQPENNYKTTPPMLDSDGSFFLYSKLTVDKSRWQQGNVFSCSVMHEALHNHYTQKSLSLSPGK
light: B1 light
notes: Humanized full length IgG
With B4 as the binder, how does the Kd (human C5a [1]) read?
Its Kd is less than 1 nM.

What about the Kd (human C5a [2]) of the same binder?
The Kd was 0.644 nM.

What about the koff (human C5a [2]) of the same binder?
Its koff is 0.000638 s⁻¹.

What about the kon (human C5a [2]) of the same binder?
Its kon is 991000 M⁻¹ s⁻¹.

B5: BNJ371 (antibody, human IgG2, kappa, V domains shown)
VH: QVQLVQSGAEVKKPGASVKVSCKASGYTFTDYSMDWVRQAPGQGLEWMGAINPNSGGTNYNQKFKDRVTMTRDTSTSTVYMELSSLRSEDTAVYYCARSGSYDGYYAMDYWGQGTTVTVSS
VL: B3 VL
notes: as for B3
What does the source list for B5?
Kd (human C5a [1]): < 1.2 nM; Kd (human C5a [2]): 1.18 nM; koff (human C5a [2]): 0.00282 s⁻¹; kon (human C5a [2]): 2.38e+06 M⁻¹ s⁻¹

B6: 5an047 (antibody, V domains shown)
VH: EVQLQQSGPELVKPGASVRISCKASGYTFSDYYYMNWVKKSHGKSLEWIGYIFPKTGGTHYNQRFKGKATLTVDKSSSTAYMELRSLTSEDSAVYYCASGPFAYWGQGTLVTVSA
VL: EIVLTQSPAIMSASPGEKVTMTCRASSSVSSSYLHWYQQKSGASPKLWIYSTSNLASGVPARFSGSGSGTSYSLTISSVEAEDAATYYCQQYSGYPLTFGAGTKLELKR
notes: Murine
Does B6 bind (human C5a [3])?
Result: binds

B7: 5an052 (antibody, V domains shown)
VH: B6 VH with S30N, K40Q
VL: QIVLTQSPAIMSASPGEKVTLTCSASSSVSSSYLYWYQQKPGSSPKLWIYSTSNLASGVPARFSGSGSGTSYSLTISTVEAEDAASYFCHQWSSYPPTFGGGTKLEIKR
notes: Murine
Does B7 bind (human C5a [3])?
Result: binds

B8: 5an054ME (antibody, V domains shown)
VH: B6 VH with R19K, S30T, K40Q, K55N, H60T
VL: QIVLTQSPVIMSASPGEKVTMTCSASSSVSYMYWYQQKPGSSPRLLIYDTSNLASGVPVRFSGSGSGTSYSLTISRMEAEDAATYYCQQWSSYPPTFGAGTKLELKR
notes: Murine
Does B8 bind (human C5a [3])?
Result: binds

B9: 5anE11 (antibody, V domains shown)
VH: B6 VH
VL: DIVMTQSQKFMSTSVGDRVSVTCKASQNVGTNVAWYQQKPGQSPKALIYSASYRYSGVPDRFTGSGSGTDFTLTISNVQSEDLAEYFCQQYNSYPWTFGGGTKLEIKR
notes: Murine
Does B9 bind (human C5a [3])?
Result: binds

B10: 5anG12 (antibody, V domains shown)
VH: B6 VH with S30N, K40Q
VL: QIVLTQSPAIMSASPGEKVTMTCSASSSISYMHWYQQKPGTSPKRWIYDTSKLASGVPARFSGSGSGTSYSLTISSMEAEDAATYYCHQRSSYPWTFGGGTKLEIKR
notes: Murine
Does B10 bind (human C5a [3])?
Result: binds

B11: 5an055 (antibody, V domains shown)
VH: B6 VH with R19K, H60N
VL: B7 VL with Q1E, T78S, V79M
notes: Murine
Does B11 bind (human C5a [3])?
Result: binds

B12: 5an181 (antibody, V domains shown)
VH: B6 VH with R19K, H60N
VL: B6 VL
notes: Murine
Does B12 bind (human C5a [3])?
Result: binds

B13: 5anG10 (antibody, V domains shown)
VH: B6 VH with S30N, K40Q
VL: B10 VL with S91R
notes: Murine
Does B13 bind (human C5a [3])?
Result: binds

B14: 5an053 (antibody, V domains shown)
VH: B6 VH with L4M, R19K, H60N
VL: B10 VL with Q1E, A9V, T22I, S76I
notes: Murine
Does B14 bind (human C5a [3])?
Result: binds

B15: 5an110ME (antibody, V domains shown)
VH: B6 VH with R19K, H60N, N62S
VL: B9 VL with W96F, G100S
notes: Murine
Does B15 bind (human C5a [3])?
Result: binds

B16: 5an109 (antibody, V domains shown)
VH: B6 VH with R19K, H60N
VL: B8 VL with Q1E, V9A, A99G, L105I
notes: Murine
Does B16 bind (human C5a [3])?
Result: binds

B17: 5an177ME (antibody, V domains shown)
VH: EVKLVESGGGLVKPGGSLKLSCAASGITFSSYYMAWVRQTPDKRLEWVATISSGGSYTYYPDNVKGRFTISRDNAKNTLYLQMSSLKSEDTAMYYCTRYYEDDAMDYWGQGTSVTVSS
VL: B10 VL with Q1E, I29V, P39S, H88Q, R90W, Y93N, W95L, G99A, I105L
notes: Murine
Does B17 bind (human C5a [3])?
Result: binds

B18: 5an188ME (antibody, V domains shown)
VH: EVQLQQSGAELVKPGTSVKLSCKASGYTFTSYWMHWVKQRPGQGLEYIGEIHPSSGHTNYHEKFKSKATLTVDKSSSTAYMQLSSLTSEDSAVYYCARASLLRAYAMDYWGQGTSVTVSS
VL: DIVLTQSPASLAVSLGQRATISCRASESVDSYGNSFMHWYQQKPGQPPKLLIYLASNLESGVPARFSGSGSRTDFTLTIDPVEADDAATYYCQQNNEDPLTFGAGTKLELKR
notes: Murine
Does B18 bind (human C5a [3])?
Result: binds

B19: 5an183 (antibody, V domains shown)
VH: EVQLQQPGSVLVRPGATVKLSCKASGFTFTSSWMHWAKQRPGQGLEWIGEIHTSGHTNYNEKFKGKATLTLDTSSSTAYVDISSLTSEDSAVYYCARGGLRRGYAMDYWGQGTSVTVSS
VL: B18 VL with L54R, V62I, D80N, A87V, N95S
notes: Murine
Does B19 bind (human C5a [3])?
Result: binds

B20: 5an185ME (antibody, V domains shown)
VH: EVQPQQSGPELVKPGSSVKISCKASGYTFTDYSMDWVKQSHGKSLEWIGAIHLNTGYTNYNQKFKGKATLTVDKSSSTAYMELRSLTSEDSAVYYCARGFYDGYSPMDYWGQGTSVTVSS
VL: B18 VL with L54R, V62I, D80N, A87V, N95S
notes: Murine
Does B20 bind (human C5a [3])?
Result: binds
